The target in the assay is T1, CCR4-IL2 bispecific immunotoxin.
T1 construct: also called CCR4-IL2 IT; CCR4-IL2 immunotoxin
Briefly: flow cytometry, MFI against concentration of biotinylated immunotoxin on CD25+CCR4+ Hut102/6TG cells, nonlinear least squares fit. For orientation: A flow cytometer gives signals particle by particle.

B1: human CD25 and human CCR4 together on human CD25+CCR4+ T-cell lymphoma cell line Hut 102/6TG (other)
chain 1: ELCDDDPPEIPHATFKAMAYKEGTMLNCECKRGFRRIKSGSLYMLCTGNSSHSSWDNQCQCTSSATRNTTKQVTPQPEEQKERKTTEMQSPMQPVDQASLPGHCREPPPWENEATERIYHFVVGQMVYYQCVQGYRALHRGPAESVCKMTHGKTRWTQPQLICTGEMETSQFPGEEKPQASPEGRPESETSCLVTTTDFQIQTEMAATMETSIFTTEYQVAVAGCVFLLISVLLLSGLTWQRRQRKSRRTI
chain 2: MNPTDIADTTLDESIYSNYYLYESIPKPCTKEGIKAFGELFLPPLYSLVFVFGLLGNSVVVLVLFKYKRLRSMTDVYLLNLAISDLLFVFSLPFWGYYAADQWVFGLGLCKMISWMYLVGFYSGIFFVMLMSIDRYLAIVHAVFSLRARTLTYGVITSLATWSVAVFASLPGFLFSTCYTERNHTYCKTKYSLNSTTWKVLSSLEINILGLVIPLGIMLFCYSMIIRTLQHCKNEKKNKAVKMIFAVVVLFLGFWTPYNIVLFLETLVELEVLQDCTFERYLDYAIQATETLAFVHCCLNPIIYFFLGEKFRKYILQLFKTCRGLFVLCQYCGLLQIYSADTPSSSYTQSTMDHDLHDAL
notes: whole, on cells; Not a complex: two separate receptors on the same cell; also called human CD25+CCR4+ Hut102/6TG; CD25+CCR4+ CTCL Hut102/6TG
Take B1: the affinity, expressed as Kd, was 19.7 nM.

By Kd is commonly meant the free concentration of one partner at which half of the binding sites on the other are occupied at equilibrium, for simple one-to-one binding. A high value points to a looser complex.

Source of the values: patent US20260042853A1 (REGENTS OF THE UNIVERSITY OF COLORADO A BODY CORPORATE, published 2026).
